Patent US20250250357A1 (NANJING ZAIMING PHARMACEUTICAL, published 2025)

T1: human MSLN-R1-his protein (human, UniProt Q13421 296-390)
T1 construct: Made in HEK293E cells, purified on nickel column; also called hMSLN-R1-his; human MSLN-R1 protein; not shown: His tag
T1 chain: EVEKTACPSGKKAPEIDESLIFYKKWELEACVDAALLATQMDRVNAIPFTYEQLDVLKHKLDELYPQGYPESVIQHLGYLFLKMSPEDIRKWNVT

T2: human MSLN-R1-his protein (human, UniProt Q13421 296-390)
T2 construct: Region 1 of human mesothelin, made in HEK293E cells, His-tagged; also called human MSLN-R1 protein; hMSLN-R1-his; not shown: His tag
T2 chain: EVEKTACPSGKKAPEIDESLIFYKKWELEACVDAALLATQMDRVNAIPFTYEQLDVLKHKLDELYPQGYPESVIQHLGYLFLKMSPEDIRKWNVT


Legend:
[1] = molecular target: T1, human MSLN-R1-his protein; assay: ELISA, coated antigen, antibody 0.0002 nM
Protocol: (§1) The plate was sealed with a plastic film and incubated at 4° C. overnight. The next day, the plate was washed twice with PBST, and a blocking buffer [PBS+2% (w/w) BSA] was added for blocking at room temperature for 2 h. The blocking buffer was discarded, and a chimeric antibody or negative control antibody serially diluted from 100 nM was added at 50 μL/well. After incubation at 37° C. for 2 h, the plate was washed 3 times with PBST. […] After incubation at 37° C. for 2 h, the plate was washed 5 times with PBST. A TMB substrate was added at 50 μL/well for incubation at room temperature for 5-10 min, and then a stop solution (1.0 N HCl) was added at 50 μL/well.

[2] = molecular target: T1, human MSLN-R1-his protein; assay: ELISA, coated antigen, antibody 0.2 nM
Protocol: as §1

[3] = molecular target: T3, human MSLN-FL-his protein (human, UniProt Q13421 296-580); assay: ELISA, coated antigen, antibody 0.2 nM
T3 construct: Made in HEK293E cells, purified on nickel column; also called hMSLN-FL-his; human MSLN full-length protein; not shown: His tag

[4] = molecular target: T1, human MSLN-R1-his protein; assay: ELISA, coated antigen, antibody 20 nM
Protocol: as §1

[5] = molecular target: T1, human MSLN-R1-his protein; assay: ELISA, coated antigen, no antibody (blank)
Protocol: as §1

[6] = molecular target: T1, human MSLN-R1-his protein; assay: ELISA, coated antigen, antibody 200 nM
Protocol: as §1

[7] = molecular target: T1, human MSLN-R1-his protein; assay: ELISA, coated antigen, antibody 0.002 nM
Protocol: as §1

[8] = molecular target: T3, human MSLN-FL-his protein; assay: ELISA, coated antigen, antibody 0.002 nM
[9] = molecular target: T3, human MSLN-FL-his protein; assay: ELISA, coated antigen, antibody 20 nM
[10] = molecular target: T1, human MSLN-R1-his protein; assay: ELISA, coated antigen, antibody 0.02 nM
Protocol: as §1

[11] = molecular target: T3, human MSLN-FL-his protein; assay: ELISA, coated antigen, antibody 200 nM
Protocol: as §1

[12] = molecular target: T3, human MSLN-FL-his protein; assay: ELISA, coated antigen, antibody 0.0002 nM
[13] = molecular target: T3, human MSLN-FL-his protein; assay: ELISA, coated antigen, antibody 2 nM
Protocol: as §1

[14] = molecular target: T1, human MSLN-R1-his protein; assay: ELISA, coated antigen, antibody 2 nM
Protocol: as §1

[15] = molecular target: T3, human MSLN-FL-his protein; assay: ELISA, coated antigen, no antibody (blank)
[16] = molecular target: T3, human MSLN-FL-his protein; assay: ELISA, coated antigen, antibody 0.02 nM
[17] = molecular target: T2, human MSLN-R1-his protein; assay: ELISA on coated MSLN-R1; antibody 10 nM
[18] = molecular target: T4, human MSLN-R2-his protein (human, UniProt Q13421 391-486); assay: ELISA on coated MSLN-R2; antibody 0.001 nM
T4 construct: Region 2 of human mesothelin, made in HEK293E cells, His-tagged; also called human MSLN-R2 protein; hMSLN-R2-his; not shown: His tag

[19] = molecular target: T2, human MSLN-R1-his protein; assay: ELISA on coated MSLN-R1; antibody 1 nM
[20] = molecular target: T2, human MSLN-R1-his protein; assay: ELISA on coated MSLN-R1; no antibody (blank)
[21] = molecular target: T2, human MSLN-R1-his protein; assay: ELISA on coated MSLN-R1; antibody 100 nM
Protocol: as §1

[22] = molecular target: T2, human MSLN-R1-his protein; assay: ELISA on coated MSLN-R1; antibody 0.0001 nM
Protocol: as §1

[23] = molecular target: T4, human MSLN-R2-his protein; assay: ELISA on coated MSLN-R2; antibody 0.1 nM
Protocol: as §1

[24] = molecular target: T2, human MSLN-R1-his protein; assay: ELISA on coated MSLN-R1; antibody 0.001 nM
Protocol: as §1

[25] = molecular target: T2, human MSLN-R1-his protein; assay: ELISA on coated MSLN-R1; antibody 0.01 nM
Protocol: as §1

[26] = molecular target: T4, human MSLN-R2-his protein; assay: ELISA on coated MSLN-R2; antibody 0.0001 nM
Protocol: as §1

[27] = molecular target: T4, human MSLN-R2-his protein; assay: ELISA on coated MSLN-R2; antibody 100 nM
Protocol: as §1

[28] = molecular target: T4, human MSLN-R2-his protein; assay: ELISA on coated MSLN-R2; antibody 1 nM
Protocol: as §1

[29] = molecular target: T4, human MSLN-R2-his protein; assay: ELISA on coated MSLN-R2; antibody 0.01 nM
[30] = molecular target: T4, human MSLN-R2-his protein; assay: ELISA on coated MSLN-R2; no antibody (blank)
Protocol: as §1

[31] = molecular target: T2, human MSLN-R1-his protein; assay: ELISA on coated MSLN-R1; antibody 0.1 nM
[32] = molecular target: T4, human MSLN-R2-his protein; assay: ELISA on coated MSLN-R2; antibody 10 nM
Protocol: as §1

T3 sequence (Q13421 other isoform, or with tags, fused parts or gaps): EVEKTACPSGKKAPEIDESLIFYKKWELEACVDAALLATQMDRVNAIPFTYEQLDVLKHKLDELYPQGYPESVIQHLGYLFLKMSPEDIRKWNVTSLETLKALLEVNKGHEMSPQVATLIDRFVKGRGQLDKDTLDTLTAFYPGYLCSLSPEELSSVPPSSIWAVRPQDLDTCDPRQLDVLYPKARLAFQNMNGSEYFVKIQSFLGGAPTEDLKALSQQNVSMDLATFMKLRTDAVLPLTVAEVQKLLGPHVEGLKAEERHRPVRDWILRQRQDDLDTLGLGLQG
T4 sequence (Q13421 other isoform, or with tags, fused parts or gaps): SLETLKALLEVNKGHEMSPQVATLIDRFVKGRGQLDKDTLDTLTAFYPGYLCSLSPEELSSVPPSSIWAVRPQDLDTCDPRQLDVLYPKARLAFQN

OD450 [1] | OD450 [2] | OD450 [3] | OD450 [4] | OD450 [5] | OD450 [6] | OD450 [7] | OD450 [8] | OD450 [9] | OD450 [10] | OD450 [11] | OD450 [12] | OD450 [13] | OD450 [14] | OD450 [15] | OD450 [16] | Binder | also measured
0.05 | 0.05 | 2.1 | 0.05 | 0.07 | 0.08 | 0.05 | 0.52 | 2.12 | 0.05 | 2.13 | 0.24 | 2.11 | 0.05 | 0.06 | 1.35 | S009-F7.65.13 chimeric antibody (antibody, human IgG1, kappa, V domains shown, Human-murine chimeric antibody, human IgG1/kappa constant regions) VH: EVQLQQSGPELVKPGTSVKILCKASGDTFTAYNMDWVKQRHGQSLEWIGDINPNTDSTIYNQKFEGKAILTVDKSSSTAYMELRSLTSEDTAVYYCARRKLGRGYFDYWGQGTTLTVSS VL: QIVLTQSPAIMSASPGEKVTMTCSVNLSVRYIYWYQQKPGSSPRLLIHDTSNLASGVPVRFSGSGSGTSYSLTISRMEAEDAATYYCQQWSSFPYTFGGGTKLEIKR | 
0.04 | 0.05 | 1.78 | 0.05 | 0.07 | 0.07 | 0.05 | 0.23 | 2.23 | 0.05 | 1.96 | 0.13 | 2.07 | 0.05 | 0.05 | 0.75 | S009-F7.67.12 chimeric antibody (antibody, human IgG1, kappa, V domains shown, Human-murine chimeric antibody, human IgG1/kappa constant regions) VH: QVQLQQPGTELVKPGASVRLSCRASGYSFSSYWMHWVKQRPGQGLEWLGNINPTTGDINYNEKFRNRATLAVDKSSTTAYLQLTSLTSEDSAVYFCVRHDGFLWGQGTTLTVSS VL: DIQMTQSPASLSASVGETVTITCRASENIYSYLAWYQQKQGKSPQLLVYYAKTLAEGVSSRFSGSGSGTQFSLKINSLQPEDFGTYYCQHQFGTPRTFGGGTKLEIRR | 
0.05 | 0.04 | 1.53 | 0.05 | 0.06 | 0.07 | 0.05 | 0.12 | 2.2 | 0.04 | 2.6 | 0.06 | 2.1 | 0.05 | 0.06 | 0.47 | S009-F7.53.2 chimeric antibody (antibody, human IgG1, kappa, V domains shown, Human-murine chimeric antibody, human IgG1/kappa constant regions) VH: EVQLQQSGPELVKPGASVKIPCKTSGYTFTDYNMDWVKQSHGKSLEWIGDINPNTDGAIYNQKFQNKATLTVDKSSSTAYMELRSLTSEDTAVYYCTRRKLGRKFFDYWGQGTTLTVSS VL: QIVLTQSPAIMSASPGEQVTMTCSASSSVGYMNWYQQKPGSSPRLLIYDTSNLASGVPVHFSGSGSGTSYSLTISRMEAAFAATYYCQQWYVYPYTFGGGTKLEIKR | 
0.05 | 0.05 | 2.15 | 0.06 | 0.07 | 0.11 | 0.05 | 0.43 | 2.26 | 0.04 | 2.1 | 0.13 | 2.29 | 0.04 | 0.06 | 1.42 | S009-F7.69.8 chimeric antibody (antibody, human IgG1, kappa, V domains shown, Human-murine chimeric antibody, human IgG1/kappa constant regions) VH: EVHLQQSGPELVKPGASVRIPCKASGYTFTDYNMDWVKQSHGKSLEWIGDINPDNGGTIYTQKFKGKATLTVDKSSSTAYMELRSLTSEDTAVYYCARRLHYYGSSGLDYWGQGTTLTVSS VL: DIQMTQSPASLSAYVGETVTITCRASGNIHNYLAWYQQKQGKSPQLLVYNAKTLADGVPSRFSGSGSGTQYSLKINSLQPEDFGSYYCQHFWSTVWTFGGGTKLEIKR | 
0.05 | 0.05 | 1.96 | 0.05 | 0.07 | 0.07 | 0.05 | 0.23 | 2.14 | 0.05 | 2.15 | 0.09 | 2.14 | 0.05 | 0.06 | 0.95 | S009-F7.61.21 chimeric antibody (antibody, human IgG1, kappa, V domains shown, Human-murine chimeric antibody, human IgG1/kappa constant regions) VH: DVQLQQSGPELVEPGASVRIPCKAAGHTFTDYNVDWVKQSHGQSLEWIGDVNPNTDGAIYNQKFEGKATLTVDTSSSTAYMELRSLTSEDTAVYFCARRRLGQGGFDSWGQGTTLTVSS VL: QVVLTQSPAIMSASPGEKVTLTCGASSSLISKYLYWYQQKPGSSPKLWIYSTSNLASGVPARFSGSGSGTSYSLTISSMEAEDAASYFCHQWSSYPYTFGGGTKVEIKR | 
 |  |  |  |  |  |  |  |  |  |  |  |  |  |  |  | S009-F8-7.5 (antibody, human IgG1, kappa, V domains shown) VH: DVQLQESGPGLVKPSQSLSLTCSVTGYSITSGYYWNWIRQFPGNKLEWMAYIRYDGSNNYNPSLKNRISIIRDTSKNQFFLRLNSVTTEDTATYYCAKSYYGMDDWGQGISVTVSS VL: DIQMTQSPASLSASVGETVTITCRTSGDIHNYLAWYQQKQGKSPQLLVYKAKTLENGVPSRFTGSGSGTQFSLKIDSLQPEDFGTYYCQHFWTTPYTFGGGTKLEIKR | OD450 [17]: 0.06 OD450; OD450 [18]: 0.09 OD450; OD450 [19]: 0.05 OD450; OD450 [20]: 0.05 OD450; OD450 [21]: 0.12 OD450; OD450 [22]: 0.04 OD450; OD450 [23]: 1.18 OD450; OD450 [24]: 0.05 OD450; OD450 [25]: 0.04 OD450; OD450 [26]: 0.06 OD450; OD450 [27]: 2.32 OD450; OD450 [28]: 1.85 OD450; OD450 [29]: 0.31 OD450; OD450 [30]: 0.05 OD450; OD450 [31]: 0.05 OD450; OD450 [32]: 2.18 OD450
0.06 | 0.04 | 2.24 | 0.06 | 0.06 | 0.13 | 0.04 | 1.19 | 2.2 | 0.04 | 2.1 | 0.77 | 2.23 | 0.05 | 0.07 | 1.77 | S009-F7.66.12 chimeric antibody (antibody, human IgG1, kappa, V domains shown, Human-murine chimeric antibody, human IgG1/kappa constant regions) VH: QIPLQQSGPELVKPGASVRISCKASDYAFSSSWMNWVKQRPEKGLEWIGRIFVESGNTHYNDKFNGKATLTADKSSRTAYIQLSSLTSEDSAVYFCTRENIFYHGHSSWFAYWGQGTLVTVSA VL: DIVLTQSPASLVVSLGQRATISCRAGESVDDFGISYVHWYQQKPGQPPKLLIYRAANLESGIPARFSGSGSRTDFTLTINPVETDDVAIYYCQQNNKDPFTFGSGTKLEIKR | 
